Assay results taken from paper PMC3269305 (Journal of Molecular Biology, 2011).

Target: human eukaryotic translation initiation factor eIF4E (human, UniProt P06730 1-217)
Assay: crystal structure

human eukaryotic translation initiation factor eIF4E, sequence (P06730 whole entry): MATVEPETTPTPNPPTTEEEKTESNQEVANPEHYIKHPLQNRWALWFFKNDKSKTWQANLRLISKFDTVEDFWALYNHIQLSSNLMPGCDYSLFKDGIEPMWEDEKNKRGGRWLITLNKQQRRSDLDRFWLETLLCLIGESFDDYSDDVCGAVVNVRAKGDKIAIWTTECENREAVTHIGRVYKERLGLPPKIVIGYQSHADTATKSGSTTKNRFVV

binding result: binds
B1: 4EBP1 peptide (eIF4E binding site of human 4EBP1, residues 47-66) (peptide)
peptide: PGGTRIIYDRKFLMECRNSP
